In patent US20120165211A1, “Human Antibodies Cross-Reacting With A Bacterial And A Self Antigen From Atherosclerotic Plaques” (priority 2007, published 2012):

What was measured:
carotid plaque = test: Immunohistology (immunofluorescence) on carotid plaque sections; assay type: binding, human; settings: 7816Fab-FLAG detected with anti-FLAG clone M2 and anti-Mouse IgG AlexaFluor488
Description: Carotid plaques harvested during TEA surgery, just after excision were fixed in 4% paraformaldehyde in PBS, cut in consecutive 2 mm thick rings, decalcified in EDTA solution when required, cryoprotected in 10% sucrose in PBS, embedded in OCT compound, then snap frozen in isopentane/liquid nitrogen and stored at −80° C. Cryosections ([…]) were cut from every ring and stained with either Hematoxylin/Eosin or Movat's pentachrome, thus the morphology was examined in at least 4 sections/ring using an Eclipse 55i microscope equipped with DS-L1 camera and LUCIA 4.82 software (all from Nikon, Tokyo, J). Multiple images collected from each ring, were composed by LUCIA 4.82 software, to obtain a whole section picture. The presence of thin cap, foam cells, fibrolipids, ulcerations, necrotic/thrombotic core, calcifications, hemorrhage/thrombosis and inflammatory infiltrate were used to classify carotid plaques as stable, vulnerable, or unstable, following Virmani's modified AHA classification. Additional sections (10 μm thick) from rings with and without atheroma were selected and submitted for immunolabeling with anti CD138 antibody or with 7816Fab-FLAG detected with anti-FLAG clone M2 followed by rabbit-anti-Mouse IgG AlexaFluor488. DAPI stained the nuclei. […] The nuclear fluorescence was due to DAPI staining.

[1] = system: antigen in the carotid lysate; test: Western blotting on carotid lysates; assay type: binding, human; settings: Fab 10 μg/ml; protein extracts 20 μg/lane
Description: Carotid plaques were macrodissected in 2 mm-thick rings and frozen in isopentane/liquid nitrogen. Every ring was considered as a single specimen. For each patient proteins were extracted from a stenotic and a non-stenotic ring by tissue homogenization in RIPA lysis buffer. The protein content of carotid plaque homogenates was quantified by Bradford assay. Western blot was performed on protein extracts (20 μg/lane) by using 10% Sodium Dodecyl Sulphate-PolyAcrylamide Gel Electrophoresis (SDS-PAGE). SDS-PAGE loading buffer was added to protein lysates before heating at 90° C. for 5 min. Gel was run for about 2 hours at 120V. […] Target (7816-FLAG) and reference proteins (bActin) were detected with specific antibodies (anti-FLAG clone M2 followed by Rabbit-anti Mouse IgG-HRP, and Rabbit-anti Mouse IgG-HRP, respectively—all from Sigma (cod: A9917, St. Louis, Mo.). The membrane was developed by SuperSignal West Pico Chemiluminescent Substrate (Pierce) according to the manufacture instructions. The mean pixel optical density (OD) for each band of the target protein, determined by densitometry, was normalized vs. β-Actin, to evaluate its quantity with respect to carotid plaque total cells. Stenotic and non stenotic rings from stable and unstable (determined by US) carotid plaque specimens were compared.

transgelin 1 (SM22) = biological target: T1, transgelin 1 (SM22) (Homo sapiens, UniProt Q01995); test: 2D electrophoresis Western blotting on plaque lysate and MALDI-ToF identification of the recognized antigen; assay type: binding; settings: two distinct spots of the 2D gel; confirmed by protein sequencing
T1 construct: A piece of the coronary plaque was weighted (65 mg), cut in small fragments and directly smashed with a Dounce; from tissue; host or cells: human coronary atherosclerotic plaque
T1 sequence (Q01995 whole entry, the tested form may be a part): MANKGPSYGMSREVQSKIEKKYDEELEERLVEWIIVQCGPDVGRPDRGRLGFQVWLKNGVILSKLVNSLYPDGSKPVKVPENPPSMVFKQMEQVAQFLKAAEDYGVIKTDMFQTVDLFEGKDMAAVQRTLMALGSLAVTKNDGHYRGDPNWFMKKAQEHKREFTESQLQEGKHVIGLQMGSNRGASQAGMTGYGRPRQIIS
Description: A piece of the coronary plaque was weighted (65 mg), cut in small fragments and directly smashed with a Dounce in 500 μl of the R5 buffer, containing: urea 8M, thiourea 2M, CHAPS 4%, Zwittergent 0.05%, 40 mM trizma base and a cocktail of protease inhibitors. The lysate was then sonicated for 5 minutes and centrifuged at 13,000 rpm for 30 minutes at 15° C. Supernatant protein content was evaluated by Bradford assay, using BSA dissolved in the same buffer, as standard. The proteins (200 μg), dissolved in R5 buffer (final volume 130 μl), were added to DeStreak (100 mM) and 2% IPG buffer pH 3-10NL, prior to loading the sample on strip pH 3-10NL, 7 cm. Total focusing run for the 1st dimension was 50,000 Vh. The 2nd dimension was carried out using 12.5% acrylamide SDS-PAGE. MW Standard proteins were run on the same gel. The gel was stained with colloidal Coomassie Brilliant Blue (cCBB). […]
Protein corresponding to positive spots in WB were excised from the gel, destained, reduced with DTE (10 mM in ammonium bicarbonate 25 mM) at 56° C. for 30 minutes, alkylated with IAA (55 mM in ammonium bicarbonate 25 mM) in the dark at room temperature for 20 minutes. They were digested with trypsin and directly analysed by MALDI-ToF mass spectrometry, using alpha-cyano-4-hydroxycinnamic acid as matrix. […]

[2] = biological target: T2, recombinant transgelin (rTAGLN) (Homo sapiens, UniProt Q01995); assay type: binding; settings: 4-500 ng rTAGLN per well
T2 construct: purchased Origene TP302448
T2 sequence (Q01995 whole entry): as the sequence (Q01995 whole entry, the tested form may be a part) above

B1: Fab7816: human recombinant Fab from coronary plaque library ID11LIB; heavy chain SEQ ID NO:2, light chain SEQ ID NO:4 (antibody, listed as Homo sapiens, V domains shown)
VH: LESGPGQVKPSQTLSLTCTVSGGSIGSGSYSWNWIRQPAGRGLEWIGRISDSGNTNFNPSLKSRVTMSVDTSKNQFALKLTSVTAADTATYFCARGRGILTGLFDYWGQGSLVSVSSASTKGPSVFPLAPSSKSTSGGTAALGCLVKD
VL: SPDSLAVSPGGRATIKCASSQSVLDNSNHKNSLAWYQQKPGLPPKLLIYWASTRYSGVPDRFSGSGSGTDFTLTINNLQAADVAVYFCQQYYSTPWTFGQGTKVE
immunofluorescence staining of carotid plaque sections (carotid plaque): specific immonostaining, mainly cytoplasmic | binding in Western blot on carotid lysate [1]: binding with an antigen in the carotid lysate | self antigen recognized in plaque lysate (2DE-WB spots, mass spectrometry) (transgelin 1 (SM22)): transgelin 1 (SM22) was unequivocally identified as the putative natural (self) antigen | binding to human transgelin in Western blot [2]: recognize human transgelin
